Test results: paper PMC6472409, “Dishevelled-3 conformation dynamics analyzed by FRET-based biosensors reveals a key role of casein kinase 1” (Nature Communications, 2019)
Values belong to the molecule of their own block, whether it stands above or below them.

How the values were obtained:
[1] = test system: DVL3 membrane recruitment by FZD6 in HEK293 cells; test: FZD6-dependent membrane recruitment of DVL3, immunofluorescence; assay type: cell-based, human; parameters: key to Non-recruited (DVL3 membrane recruitment): number of cells out of 100 positive cells scored; details: Fig 8c
From the text: First, we analyzed the preferred subcellular localization of DVL3 (as introduced in Fig. 2c)[10],[14]. […] Next, we investigated if DVL3 conformation correlates with the capacity of DVL3 to be recruited by FZD6, a key Wnt receptor, to the plasma membrane. For this purpose, we co-expressed FZD6 and analyzed membrane recruitment of DVL3 in FZD6-positive cells by immunofluorescence. Individual cells were categorized as: not recruited (Fig. 8b, no DVL3 in the membrane), partially recruited (clear membrane as well as cytoplasmic localization), and fully recruited (predominantly plasma membrane localization, Fig. 8c, left). […] In the last readout we analyzed the capacity of DVL3 to activate downstream Wnt/β-catenin pathway monitored by TopFlash reporter assay (Fig. 8d). […] On the other hand, under conditions that favor the open conformation both activation as well as inhibition of the Wnt/β-catenin pathway was evident.
For immunofluorescence, cells were seeded (40,000 per well) on 24-well plates with gelatin-coated coverslips and transfected, as indicated, with 0.1 μg of each corresponding plasmid (0.3 μg of mCherry-FZD6) for 6 h. For western blotting and Dual Luciferase TopFlash/Renilla Reporter Assay, cells were seeded (60,000 per well) directly on 24-well plates with 0.1 μg of each corresponding plasmid (if not indicated otherwise) for 6 h. For coimmunoprecipitation, cells were seeded (4.4 × 10^6) on 10-cm dishes and transfected with 1 μg of each corresponding plasmid. The next day after seeding, cells were transfected using polyethyleneimine (PEI) in a stoichiometry of 6 μl of PEI per 1 μg of DNA for 6 h and were harvested 24 h after transfection. The following plasmids used in HEK293 cells have been described previously: FLAG-DVL3 wt[47], CK1ϵ wt[48], mCherry-FZD6 (ref. [37]), and dominant-negative CK1ϵ P3 (ref. [33]). The ECFP-DVL3 wt plasmid was made by Gateway Technology (via LR recombination according to the manufacturer’s instructions; Thermo Fisher Scientific, #11791020) from the donor plasmid pDONR221 DVL3 (DNASU, #FLH178665.01x) and the destination plasmid pdECFP (LMBP, #4548). The HA-DVL3 wt plasmid was made by Gateway Technology from the donor plasmid pDONR221 DVL3 (DNASU, #FLH178665.01x) and the destination plasmid pcDNA3.1 N-term HA (gift from Erich Nigg).
Cells were seeded on gelatin-coated coverslips in 24-well plates and were transfected the next day. Cells were fixed 24 h later in fresh 4% paraformaldehyde, permeabilized with 0.5% Triton X-100, blocked with PBS/BSA/Triton/Azide buffer (PBTA) [3% (wt/vol) BSA, 0.25% Triton, 0.01% NaN3] for 1 h, and incubated overnight with primary antibodies (in dilution 1:500) in PBTA at 4 °C. The next day, the coverslips were washed in PBS and incubated with secondary antibodies conjugated to Alexa Fluor 488 (Invitrogen A11001) or/and Alexa Fluor 594 (Invitrogen A11058) (all in dilution 1:1000), washed with PBS [in case of samples containing FLAG-DVL3 WT and derived variants stained with DAPI (1:5000)], and all coverslips were mounted on microscopic slides. Cells were then visualized on an Olympus IX51 fluorescent microscope using ×40 air or ×100 oil objectives and/or an Olympus Fluoview 500 confocal laser scanning microscope IX71 using ×100 oil objective. One hundred positive cells per experiment (n = 3) were analyzed and scored according to their phenotype into two/three categories (punctae/even); or non-recruited/partially/fully recruited for FZD6-dependent recruitment of DVL3. The antibodies used were as follows: anti-FLAG M2 (Sigma-Aldrich, #F1804), anti-DVL3 (Santa Cruz, #sc-8027), anti-CK1ɛ (Santa Cruz, #sc-6471), anti-RFP (Chromotek, #5h9) and anti-GFP (Fitzgerald, #20R-GR-011).

Wnt/β-catenin pathway = test: Dual Luciferase TopFlash/Renilla Reporter Assay; assay type: cell-based, human; details: for TopFlash relative to DVL3 wt (= 1) / TopFlash in CK1e-/- relative to CK1e wt (= 1): Fig 8d; for TopFlash relative to ctrl (= 1): Suppl. Fig. 2a; for TopFlash FlAsH III (CK1e-/-), relative to ctrl (= 1): Suppl. Fig. 4f; for TopFlash FlAsH III (CK1e-/-), relative to ctrl (= 1) / TopFlash in CK1e-/- relative to CK1e wt (= 1): CK1e-/- cells
Description: Cells were transfected 24 h after seeding with 0.1 μg of Super8X TopFlash construct, 0.1 μg of Renilla luciferase construct, and 0.1 μg of corresponding plasmids per well for 6 h in a 24-well plate. As for the ECFP-DVL3 FIII wt stable cell lines, transfection was followed by 4 h induction of tetracycline (1 µg/ml) and 8 h treatment of CM:DMEM (1:1 ratio). For performing this assay, Promega Dual Luciferase assay kit (Promega, #E1910) was used according to the manufacturer’s instructions. Luminescence was measured by a Hidex Bioscan Plate Chameleon Luminometer. Results are depicted as the ratio of TopFlash and Renilla signal (TopFlash fold induction), which was normalized for each experiment to certain control column (normalized TopFlash fold induction). Data were analyzed by MS Excel 2007 and GraphPad Prism 6 and results were shown as the means ± S.D. (number of experiments indicated ad hoc).

[2] = sensor FlAsH III, replicate of grid row r5
[3] = sensor FlAsH III, replicate of grid row r6
[4] = sensor FlAsH III, replicate of grid row r7
[5] = panel of CK1e-/- comparison, wt cells, exp1
[6] = panel of CK1e-/- comparison, wt cells, exp3

TopFlash relative to DVL3 wt (= 1) (Wnt/β-catenin pathway; replicate of grid row r4): 2.8
TopFlash relative to DVL3 wt (= 1) (Wnt/β-catenin pathway; replicate of grid row r5): 2.5
TopFlash relative to DVL3 wt (= 1) (Wnt/β-catenin pathway; replicate of grid row r6): 1.85
Molecule: Ck1e
Fully recruited (DVL3 membrane recruitment) ([1]; exp1): 8
Non-recruited (DVL3 membrane recruitment) ([1]; exp1): 58
Partially recruited (DVL3 membrane recruitment) ([1]; exp1): 34
Fully recruited (DVL3 membrane recruitment) ([1]; exp2): 43
Non-recruited (DVL3 membrane recruitment) ([1]; exp2): 27
Partially recruited (DVL3 membrane recruitment) ([1]; exp2): 30
Fully recruited (DVL3 membrane recruitment) ([1]; exp3): 15
Non-recruited (DVL3 membrane recruitment) ([1]; exp3): 63
Partially recruited (DVL3 membrane recruitment) ([1]; exp3): 22

Molecule: CK1e
TopFlash relative to ctrl (= 1) (Wnt/β-catenin pathway; sensor FlAsH I, replicate of grid row r5): 1.477
TopFlash relative to ctrl (= 1) (Wnt/β-catenin pathway; sensor FlAsH I, replicate of grid row r6): 1.51
TopFlash relative to ctrl (= 1) (Wnt/β-catenin pathway; sensor FlAsH I, replicate of grid row r7): 1.233
TopFlash relative to ctrl (= 1) (Wnt/β-catenin pathway; sensor FlAsH II, replicate of grid row r5): 1.907
TopFlash relative to ctrl (= 1) (Wnt/β-catenin pathway; sensor FlAsH II, replicate of grid row r6): 2.332
TopFlash relative to ctrl (= 1) (Wnt/β-catenin pathway; sensor FlAsH II, replicate of grid row r7): 1.874
TopFlash relative to ctrl (= 1) (Wnt/β-catenin pathway; [2]): 2.614
TopFlash relative to ctrl (= 1) (Wnt/β-catenin pathway; [3]): 1.858
TopFlash relative to ctrl (= 1) (Wnt/β-catenin pathway; [4]): 2.849
TopFlash relative to ctrl (= 1) (Wnt/β-catenin pathway; sensor FlAsH IV, replicate of grid row r5): 3.481
TopFlash relative to ctrl (= 1) (Wnt/β-catenin pathway; sensor FlAsH IV, replicate of grid row r6): 2.7
TopFlash relative to ctrl (= 1) (Wnt/β-catenin pathway; sensor FlAsH IV, replicate of grid row r7): 1.4298
TopFlash FlAsH III (CK1e-/-), relative to ctrl (= 1) (Wnt/β-catenin pathway; [2]): 2.409
TopFlash FlAsH III (CK1e-/-), relative to ctrl (= 1) (Wnt/β-catenin pathway; [3]): 2.306
TopFlash FlAsH III (CK1e-/-), relative to ctrl (= 1) (Wnt/β-catenin pathway; [4]): 3.0297

TopFlash in CK1e-/- relative to CK1e wt (= 1) (Wnt/β-catenin pathway; replicate of grid row r4): 0.2303
TopFlash in CK1e-/- relative to CK1e wt (= 1) (Wnt/β-catenin pathway; replicate of grid row r5): 0.1152
TopFlash in CK1e-/- relative to CK1e wt (= 1) (Wnt/β-catenin pathway; replicate of grid row r6): 0.24
TopFlash in CK1e-/- relative to CK1e wt (= 1) (Wnt/β-catenin pathway; replicate of grid row r7): 0.2094
B1: DVL3 wt (protein, UniProt Q92997 1-716, looked up)
Segment polarity protein …: MGETKIIYHLDGQETPYLVKLPLPAERVTLADFKGVLQRPSYKFFFKSMDDDFGVVKEEISDDNAKLPCFNGRVVSWLVSAEGSHPDPAPFCADNPSELPPPMERTGGIGDSRPPSFHPHAGGGSQENLDNDTETDSLVSAQRERPRRRDGPEHATRLNGTAKGERRREPGGYDSSSTLMSSELETTSFFDSDEDDSTSRFSSSTEQSSASRLMRRHKRRRRKQKVSRIERSSSFSSITDSTMSLNIITVTLNMEKYNFLGISIVGQSNERGDGGIYIGSIMKGGAVAADGRIEPGDMLLQVNEINFENMSNDDAVRVLREIVHKPGPITLTVAKCWDPSPRGCFTLPRSEPIRPIDPAAWVSHTAAMTGTFPAYGMSPSLSTITSTSSSITSSIPDTERLDDFHLSIHSDMAAIVKAMASPESGLEVRDRMWLKITIPNAFIGSDVVDWLYHNVEGFTDRREARKYASNLLKAGFIRHTVNKITFSEQCYYIFGDLCGNMANLSLHDHDGSSGASDQDTLAPLPHPGAAPWPMAFPYQYPPPPHPYNPHPGFPELGYSYGGGSASSQHSEGSRSSGSNRSGSDRRKEKDPKAGDSKSGGSGSESDHTTRSSLRGPRERAPSERSGPAASEHSHRSHHSLASSLRSHHTHPSYGPPGVPPLYGPPMLMMPPPPAAMGPPGAPPGRDLASVPPELTASRQSFRMAMGNPSEFFVDVM
Fully recruited (DVL3 membrane recruitment) ([1]; CK1e-/- cells, exp1): 31
Non-recruited (DVL3 membrane recruitment) ([1]; CK1e-/- cells, exp1): 33
Partially recruited (DVL3 membrane recruitment) ([1]; CK1e-/- cells, exp1): 36
Fully recruited (DVL3 membrane recruitment) ([1]; CK1e-/- cells, exp2): 16
Non-recruited (DVL3 membrane recruitment) ([1]; CK1e-/- cells, exp2): 44
Partially recruited (DVL3 membrane recruitment) ([1]; CK1e-/- cells, exp2): 40
Fully recruited (DVL3 membrane recruitment) ([1]; CK1e-/- cells, exp3): 26
Non-recruited (DVL3 membrane recruitment) ([1]; CK1e-/- cells, exp3): 50
Partially recruited (DVL3 membrane recruitment) ([1]; CK1e-/- cells, exp3): 24
Fully recruited (DVL3 membrane recruitment) ([1]; exp1): 11
Non-recruited (DVL3 membrane recruitment) ([1]; exp1): 58
Partially recruited (DVL3 membrane recruitment) ([1]; exp1): 31
Fully recruited (DVL3 membrane recruitment) ([1]; exp2): 20
Non-recruited (DVL3 membrane recruitment) ([1]; exp2): 34
Partially recruited (DVL3 membrane recruitment) ([1]; exp2): 46
Fully recruited (DVL3 membrane recruitment) ([1]; exp3): 22
Non-recruited (DVL3 membrane recruitment) ([1]; exp3): 48
Partially recruited (DVL3 membrane recruitment) ([1]; exp3): 30
Fully recruited (DVL3 membrane recruitment) [1, 5]: 8
Non-recruited (DVL3 membrane recruitment) [1, 5]: 65
Partially recruited (DVL3 membrane recruitment) [1, 5]: 27
Fully recruited (DVL3 membrane recruitment) [1, 6]: 20
Non-recruited (DVL3 membrane recruitment) [1, 6]: 51
Partially recruited (DVL3 membrane recruitment) [1, 6]: 29
